Experimental data published in patent US20250388669A1 (published 2025).
Numbering of substitutions follows the chain as printed.

T1: CD19 (human, UniProt P15391 20-556)
T1 sequence (looked up): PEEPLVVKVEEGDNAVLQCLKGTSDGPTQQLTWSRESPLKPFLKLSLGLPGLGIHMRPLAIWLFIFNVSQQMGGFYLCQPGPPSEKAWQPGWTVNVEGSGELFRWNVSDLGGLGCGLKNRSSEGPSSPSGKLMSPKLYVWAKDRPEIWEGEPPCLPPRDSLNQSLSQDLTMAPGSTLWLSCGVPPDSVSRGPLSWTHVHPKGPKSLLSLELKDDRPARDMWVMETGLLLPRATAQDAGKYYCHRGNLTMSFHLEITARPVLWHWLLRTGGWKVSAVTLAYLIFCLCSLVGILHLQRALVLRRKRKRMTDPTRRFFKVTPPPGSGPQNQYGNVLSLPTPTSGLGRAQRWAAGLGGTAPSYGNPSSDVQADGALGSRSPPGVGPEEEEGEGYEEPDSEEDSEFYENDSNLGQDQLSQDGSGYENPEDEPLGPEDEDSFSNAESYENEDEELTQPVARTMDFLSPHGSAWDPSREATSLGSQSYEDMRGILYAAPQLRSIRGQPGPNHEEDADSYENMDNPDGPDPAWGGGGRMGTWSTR

B1: Ly2415 (bispecific antibody, human IgG1, kappa)
heavy 1: QVTLKESGPALVKPTQTLTLTCTFSGFSLSTSGTCVSWIRQPPGKALEWLATICWEDSKGYNPSLKSRLTISKDTSKNQAVLTMTNMDPVDTATYYCARREDSGYFWFPYWGQGTLVTVSSASTKGPSVFPLAPSSKSTSGGTAALGCLVKDYFPEPVTVSWNSGALTSGVHTFPAVLQSSGLYSLSSVVTVPSSSLGTQTYICNVNHKPSNTKVDKKVEPKSCDKTHTCPPCPAPEAAGPSVFLFPPKPKDTLMISRTPEVTCVVVDVSHEDPEVKFNWYVDGVEVHNAKTKPREEQYNSTYRVVSVLTVLHQDWLNGKEYKCKVSNKALPAPIEKTISKAKGQPREPQVYTLPPSREEMTKNQVSLWCLVKGFYPSDIAVEWESNGQPENNYKTTPPVLDSDGSFFLYSKLTVDKSRWQQGNVFSCSVMHEALHNHYTQKSLSLSPGGGGGSGGGGSGGGGSGGGGSEVQLVESGGGLVQPGGSLRLSCAASGFTFTNYGLHWVRQAPGKGLEWVSSISPSGGVTYYRDSVKGRFTISRDNSKNTLYLQMNSLRAEDTAVYYCAKPFLGWGGANWIAHWGQGTLVTVSS
heavy 2: QVTLKESGPALVKPTQTLTLTCTFSGFSLSTSGTCVSWIRQPPGKALEWLATICWEDSKGYNPSLKSRLTISKDTSKNQAVLTMTNMDPVDTATYYCARREDSGYFWFPYWGQGTLVTVSSASTKGPSVFPLAPSSKSTSGGTAALGCLVKDYFPEPVTVSWNSGALTSGVHTFPAVLQSSGLYSLSSVVTVPSSSLGTQTYICNVNHKPSNTKVDKKVEPKSCDKTHTCPPCPAPEAAGPSVFLFPPKPKDTLMISRTPEVTCVVVDVSHEDPEVKFNWYVDGVEVHNAKTKPREEQYNSTYRVVSVLTVLHQDWLNGKEYKCKVSNKALPAPIEKTISKAKGQPREPQVYTLPPSREEMTKNQVSLSCAVKGFYPSDIAVEWESNGQPENNYKTTPPVLDSDGSFFLVSKLTVDKSRWQQGNVFSCSVMHEALHNRFTQKSLSLSPGGGGGSGGGGSGGGGSGGGGSDIQMTQSPSSLSASVGDRVTITCLASEDISNDLAWYQQKPGKAPKLLIYFVDRLLDGVPSRFSGSGSGTDFTLTISSLQPEDFATYYCQQSYKYPPTFGQGTKLEIK
light: NIQMTQSPSSLSASVGDRVTITCKAGQNVNNYLAWYQQKPGKAPKVLIFNANSLQTGVPSRFSGSGSGTDFTLTISSLQPEDFATYYCQQYNSWPTFGGGTKVEIKRTVAAPSVFIFPPSDEQLKSGTASVVCLLNNFYPREAKVQWKVDNALQSGNSQESVTEQDSKDSTYSLSSTLTLSKADYEKHKVYACEVTHQGLSSPVTKSFNRGEC
notes: PD-1 Fabs (Ly516) x terminal CD40 Fv (TM559)
B2: Ly1966 (other)
chain 1: QVQLQQSGAELVRPGSSVKISCKASGYAFSSYWMNWVKQRPGQGLEWIGQIWPGDGDTNYNGKFKGKATLTADESSSTAYMQLSSLASEDSAVYFCARRETTTVGRYYYAMDYWGQGTTVTVSSASTKGPSVFPLAPSSKSTSGGTAALGCLVKDYFPEPVTVSWNSGALTSGVHTFPAVLQSSGLYSLSSVVTVPSSSLGTQTYICNVNHKPSNTKVDKKVEPKSCGGGGSGGGGSGGGGSGGGGSEVQLVESGGGLVQPGGSLRLSCAASGFTFSTYAMNWVRQAPGKGLEWVGRIRSKYNNYATYYADSVKGRFTISRDDSKNSLYLQMNSLKTEDTAVYYCVRHGNFGNSYVSWFAYWGQGTLVTVSSGGGGSDKTHTCPPCPAPEAAGPSVFLFPPKPKDTLMISRTPEVTCVVVDVSHEDPEVKFNWYVDGVEVHNAKTKPREEQYNSTYRVVSVLTVLHQDWLNGKEYKCKVSNKALPAPIEKTISKAKGQPREPQVYTLPPSREEMTKNQVSLWCLVKGFYPSDIAVEWESNGQPENNYKTTPPVLDSDGSFFLYSKLTVDKSRWQQGNVFSCSVMHEALHNHYTQKSLSLSPGGGGGSGGGGSGGGGSGGGGSQVQLVQSGAEVKKPGASVKVSCKASGYTFAGFEMHWVRQAPGQGLEWMGAIDPKTGGTDYNQKFKDRVTMTRDTSISTAYMELSRLRSDDTAVYYCARDLGYFDVWGQGTLVTVSS
chain 2: QVQLQQSGAELVRPGSSVKISCKASGYAFSSYWMNWVKQRPGQGLEWIGQIWPGDGDTNYNGKFKGKATLTADESSSTAYMQLSSLASEDSAVYFCARRETTTVGRYYYAMDYWGQGTTVTVSSASTKGPSVFPLAPSSKSTSGGTAALGCLVKDYFPEPVTVSWNSGALTSGVHTFPAVLQSSGLYSLSSVVTVPSSSLGTQTYICNVNHKPSNTKVDKKVEPKSCGGGGSGGGGSGGGGSGGGGSQAVVTQEPSLTVSPGGTVTLTCRSSTGAVTTSNYANWVQQKPGQAPRGLIGGTNKRAPWTPARFSGSLLGGKAALTITGAQAEDEADYYCALWYSNLWVFGGGTKLTVLGGGGSDKTHTCPPCPAPEAAGPSVFLFPPKPKDTLMISRTPEVTCVVVDVSHEDPEVKFNWYVDGVEVHNAKTKPREEQYNSTYRVVSVLTVLHQDWLNGKEYKCKVSNKALPAPIEKTISKAKGQPREPQVYTLPPSREEMTKNQVSLSCAVKGFYPSDIAVEWESNGQPENNYKTTPPVLDSDGSFFLVSKLTVDKSRWQQGNVFSCSVMHEALHNRFTQKSLSLSPGGGGGSGGGGSGGGGSGGGGSDIQMTQSPSSLSASVGDRVTITCRASQDIRSNLNWYQQKPGGAVKLLIYYTSRLHSGVPSRFSGSGSGTDYTLTISSLQPEDFATYFCQQSEKLPRTFGGGTKVEIR
light: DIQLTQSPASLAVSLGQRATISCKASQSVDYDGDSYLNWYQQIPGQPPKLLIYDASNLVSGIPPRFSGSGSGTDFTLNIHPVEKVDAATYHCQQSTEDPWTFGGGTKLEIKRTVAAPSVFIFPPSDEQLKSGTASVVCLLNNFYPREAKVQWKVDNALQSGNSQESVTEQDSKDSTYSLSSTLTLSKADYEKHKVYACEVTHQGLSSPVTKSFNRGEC
notes: Tri-specific CD19/CD3/CD137: two CD19 Fabs, central CD3 Fv, terminal CD137 Fv
B3: Ly1967 (other)
chain 1: B2 chain 1
chain 2: B2 chain 2 with R575H, F576Y
light: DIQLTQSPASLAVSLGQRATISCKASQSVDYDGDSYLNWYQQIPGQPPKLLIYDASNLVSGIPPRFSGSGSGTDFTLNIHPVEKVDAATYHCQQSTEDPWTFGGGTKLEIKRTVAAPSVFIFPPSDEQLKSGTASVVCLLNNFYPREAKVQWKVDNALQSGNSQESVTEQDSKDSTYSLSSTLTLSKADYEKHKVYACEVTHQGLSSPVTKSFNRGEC
B4: Ly2438 (bispecific antibody)
chain 1: QVQLVQSGAEVKKPGASVKVSCKASGYTFTDFWMSWVRQAPGQGLEWMGQIYPNTGTTHSNEKFKGRVTMTRDTSTSTVYMELSSLRSEDTAVYYCARSYHISTTPNWFAYWGQGTLVTVSSASTKGPSVFPLAPSSKSTSGGTAALGCLVKDYFPEPVTVSWNSGALTSGVHTFPAVLQSSGLYSLSSVVTVPSSSLGTQTYICNVNHKPSNTKVDKKVEPKSCGGGGSGGGGSGGGGSGGGGSEVQLVESGGGLVQPGGSLRLSCAASGFTFTNYGLHWVRQAPGKGLEWVSSISPSGGVTYYRDSVKGRFTISRDNSKNTLYLQMNSLRAEDTAVYYCAKPFLGWGGANWIAHWGQGTLVTVSSGGGGSDKTHTCPPCPAPEAAGPSVFLFPPKPKDTLMISRTPEVTCVVVDVSHEDPEVKFNWYVDGVEVHNAKTKPREEQYNSTYRVVSVLTVLHQDWLNGKEYKCKVSNKALPAPIEKTISKAKGQPREPQVYTLPPSREEMTKNQVSLWCLVKGFYPSDIAVEWESNGQPENNYKTTPPVLDSDGSFFLYSKLTVDKSRWQQGNVFSCSVMHEALHNHYTQKSLSLSPG
chain 2: QVQLVQSGAEVKKPGASVKVSCKASGYTFTDFWMSWVRQAPGQGLEWMGQIYPNTGTTHSNEKFKGRVTMTRDTSTSTVYMELSSLRSEDTAVYYCARSYHISTTPNWFAYWGQGTLVTVSSASTKGPSVFPLAPSSKSTSGGTAALGCLVKDYFPEPVTVSWNSGALTSGVHTFPAVLQSSGLYSLSSVVTVPSSSLGTQTYICNVNHKPSNTKVDKKVEPKSCGGGGSGGGGSGGGGSGGGGSDIQMTQSPSSLSASVGDRVTITCLASEDISNDLAWYQQKPGKAPKLLIYFVDRLLDGVPSRFSGSGSGTDFTLTISSLQPEDFATYYCQQSYKYPPTFGQGTKLEIKGGGGSDKTHTCPPCPAPEAAGPSVFLFPPKPKDTLMISRTPEVTCVVVDVSHEDPEVKFNWYVDGVEVHNAKTKPREEQYNSTYRVVSVLTVLHQDWLNGKEYKCKVSNKALPAPIEKTISKAKGQPREPQVYTLPPSREEMTKNQVSLSCAVKGFYPSDIAVEWESNGQPENNYKTTPPVLDSDGSFFLVSKLTVDKSRWQQGNVFSCSVMHEALHNRFTQKSLSLSPG
light: DIQMTQSPSSLSASVGDRVTITCKASQNVYKKLEWYQQKPGKVPKVLIYHTNILQTGVPSRFSGSGSGTDYTLTISSLQPEDVATYYCYQWNSGPTFGGGTKVEIKRTVAAPSVFIFPPSDEQLKSGTASVVCLLNNFYPREAKVQWKVDNALQSGNSQESVTEQDSKDSTYSLSSTLTLSKADYEKHKVYACEVTHQGLSSPVTKSFNRGEC
notes: PD-L1/CD40: two PD-L1 Fabs (Ly076), central CD40 Fv (TM559)
B5: Ly2444 (bispecific antibody, human IgG1, kappa)
chain 1: QVQLVQSGAEVKKPGASVKVSCKASGYTFTDFWMSWVRQAPGQGLEWMGQIYPNTGTTHSNEKFKGRVTMTRDTSTSTVYMELSSLRSEDTAVYYCARSYHISTTPNWFAYWGQGTLVTVSSASTKGPSVFPLAPSSKSTSGGTAALGCLVKDYFPEPVTVSWNSGALTSGVHTFPAVLQSSGLYSLSSVVTVPSSSLGTQTYICNVNHKPSNTKVDKKVEPKSCDKTHTCPPCPAPEAAGPSVFLFPPKPKDTLMISRTPEVTCVVVDVSHEDPEVKFNWYVDGVEVHNAKTKPREEQYNSTYRVVSVLTVLHQDWLNGKEYKCKVSNKALPAPIEKTISKAKGQPREPQVYTLPPSREEMTKNQVSLWCLVKGFYPSDIAVEWESNGQPENNYKTTPPVLDSDGSFFLYSKLTVDKSRWQQGNVFSCSVMHEALHNHYTQKSLSLSPGGGGGSGGGGSGGGGSGGGGSEVQLVESGGGLVQPGGSLRLSCAASGFTFTNYGLHWVRQAPGKGLEWVSSISPSGGVTYYRDSVKGRFTISRDNSKNTLYLQMNSLRAEDTAVYYCAKPFLGWGGANWIAHWGQGTLVTVSS
chain 2: QVQLVQSGAEVKKPGASVKVSCKASGYTFTDFWMSWVRQAPGQGLEWMGQIYPNTGTTHSNEKFKGRVTMTRDTSTSTVYMELSSLRSEDTAVYYCARSYHISTTPNWFAYWGQGTLVTVSSASTKGPSVFPLAPSSKSTSGGTAALGCLVKDYFPEPVTVSWNSGALTSGVHTFPAVLQSSGLYSLSSVVTVPSSSLGTQTYICNVNHKPSNTKVDKKVEPKSCDKTHTCPPCPAPEAAGPSVFLFPPKPKDTLMISRTPEVTCVVVDVSHEDPEVKFNWYVDGVEVHNAKTKPREEQYNSTYRVVSVLTVLHQDWLNGKEYKCKVSNKALPAPIEKTISKAKGQPREPQVYTLPPSREEMTKNQVSLSCAVKGFYPSDIAVEWESNGQPENNYKTTPPVLDSDGSFFLVSKLTVDKSRWQQGNVFSCSVMHEALHNRFTQKSLSLSPGGGGGSGGGGSGGGGSGGGGSDIQMTQSPSSLSASVGDRVTITCLASEDISNDLAWYQQKPGKAPKLLIYFVDRLLDGVPSRFSGSGSGTDFTLTISSLQPEDFATYYCQQSYKYPPTFGQGTKLEIK
light: B4 light
notes: PD-L1/CD40: two PD-L1 Fabs (Ly076), terminal CD40 Fv (TM559)

Tests used:
[1] = target: CD40 (UniProt P25942 21-193, limits assumed); assay: FCM or ELISA, graded
[2] = target: PD-1 (binding assay) (UniProt Q15116 25-167, limits assumed); assay: FCM or ELISA, graded
[3] = target: T1, CD19; assay: cell-based or functional assay
[4] = target: T2, CD137 (human, UniProt Q07011 24-186); assay: CD137 binding by FCM or ELISA
T2 construct: Reporter assays used GS-H2-huCD137 cells expressing human CD137; also called 4-1BB/CD137; huCD137

[5] = target: T3, PD-L1 (human, UniProt Q9NZQ7 19-238, limits assumed); assay: FCM or ELISA
T3 construct: The reporter assay used Raji cells expressing human PD-L1
T3 sequence (Q9NZQ7 19-238 limits assumed): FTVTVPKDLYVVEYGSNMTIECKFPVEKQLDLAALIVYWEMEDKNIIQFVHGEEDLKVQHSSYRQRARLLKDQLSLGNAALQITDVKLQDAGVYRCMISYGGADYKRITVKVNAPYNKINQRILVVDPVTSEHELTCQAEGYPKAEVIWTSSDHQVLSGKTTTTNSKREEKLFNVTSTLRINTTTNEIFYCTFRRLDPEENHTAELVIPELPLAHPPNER

Sequence of CD40 (P25942 21-193 limits assumed): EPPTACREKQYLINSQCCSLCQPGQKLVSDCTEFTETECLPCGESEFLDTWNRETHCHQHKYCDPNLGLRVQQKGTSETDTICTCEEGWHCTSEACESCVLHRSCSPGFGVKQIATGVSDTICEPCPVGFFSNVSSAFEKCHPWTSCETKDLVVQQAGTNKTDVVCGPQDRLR
Sequence of PD-1 (binding assay) (Q15116 25-167 limits assumed): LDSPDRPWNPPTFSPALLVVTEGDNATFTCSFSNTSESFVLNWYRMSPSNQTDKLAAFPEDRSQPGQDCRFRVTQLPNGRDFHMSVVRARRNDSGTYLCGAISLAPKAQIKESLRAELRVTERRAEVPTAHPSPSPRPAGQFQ

| Binder | EC50 of cytotoxicity (LDH release), Raji cells with human PBMCs, 48 hours [3] [pM] | binding result [4] | binding result [5] | other results |
| --- | --- | --- | --- | --- |
| B1 | – | – | – | binding result [1]: binds; binding result [2]: binds |
| B2 | 10.8 | binds | – | – |
| B3 | 8.9 | binds | – | – |
| B4 | – | – | binds | – |
| B5 | – | – | binds | – |
